Laboratory results taken from patent publication US20260274921A1.

Tests used:
[1] = biological target: His-tagged CD47 extracellular domain (ECD) protein (Abclonal, CAT #RP01306) (human) (UniProt Q08722); test: ELISA; pH 7.2; conditions: Fc fusion
[2] = biological target: His-tagged CD47 extracellular domain (ECD) protein (Abclonal, CAT #RP01306) (human) (UniProt Q08722); test: ELISA; pH 6.0; conditions: Fc fusion

Chain of His-tagged CD47 extracellular domain (ECD) protein (Abclonal, CAT #RP01306) (human) (Q08722 19-139): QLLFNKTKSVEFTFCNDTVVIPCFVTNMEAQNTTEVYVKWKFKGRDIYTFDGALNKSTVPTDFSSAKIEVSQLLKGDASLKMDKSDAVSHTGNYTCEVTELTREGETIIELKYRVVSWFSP

Row | Substance | EC50 [1] | EC50 [2]
1 | SIN-300, wild type SIRPαV2 IgV-IgG1 Fc fusion protein | 3.84 nM | 0.667 nM
2 | SIN-301, SIRPαV2 K53H IgV-IgG1 Fc | – | 1.35 nM
3 | SIN-302, SIRPαV2 R69H IgV-IgG1 Fc | 158 nM | 30 nM
4 | SIN-303, SIRPαV2 Q52H IgV-IgG1 Fc | 6.92 nM | 0.627 nM
5 | SIN-304, SIRPαV2 K68H IgV-IgG1 Fc | – | 0.772 nM
